Experimental data taken from patent publication CN113698481A (SUZHOU CENTERGENE PHARMACEUTICALS CO LTD, dated 2021).
Substitutions are numbered along the chain they refer to.

B1: SEQ ID NO 3 (VHH)
VHH: QVQVAESGGGLVQSGGSMNLSCTASGNLFSVDAMGWFRQAPGEEREAVAAIMWSGDSTYYANAVKGRFTISRDNAKNTVYLQMNSLKPEDTAVYYCAARLQEEGWWDYWGQGTQVTVSS
notes: Expressed in E. coli, nickel column purified; Only the CDRs are printed; also called 蛋白3
B2: SEQ ID NO 6 (VHH)
VHH: B1 VHH with A5V, S14P, M18L, N19R, T23A, N27R, L28T, F29V, V31S, D32H
notes: Expressed in E. coli, nickel column purified; Only the CDRs are printed; also called 蛋白6
B3: SEQ ID NO 4 (VHH)
VHH: QVRLVESGGGLVQPGGSLRLSCTASGGTFDRYNVAWFRQAPGEEREAVASIMWSGDNTYYANSVKGRFTISRDNAKNTVYLQMNSLKPEDTAVYYCAARIQEQGWWDYWGQGTQVTVSS
notes: Expressed in E. coli, nickel column purified; Only the CDRs are printed; also called 蛋白4
B4: SEQ ID NO 5 (VHH)
VHH: QVQLVESGGGLAQAGGSLRLSCAASGRTASGYAMGWFRQAPGKEREAVAAIMWSGGSTYYADSVKGRFTISRDNAKNTVYLQMNSLKTEDTAVYYCAARTDGSGWWDYWGQGTQVTVSS
notes: Expressed in E. coli, nickel column purified; Only the CDRs are printed; also called 蛋白5
B5: SEQ ID NO 7 (VHH)
VHH: QVQLVESGGGLVQAGGSLRLSCVASGRTFSSYDMGWFRQAPGEEREAVAAINWSGGSTYYADSVKGRFTISSDNAKNTVYLQMNNLKPEDTAVYYCAARQVPGWWDYWGQGTQVTVSS
notes: Expressed in E. coli, nickel column purified; Only the CDRs are printed; also called 蛋白7

Target: T1, 人绒毛膜促性腺激素(HCG) (human, UniProt P0DN86 21-165)
T1 construct: Alpha/beta heterodimer coated on ELISA plates; The source of the HCG preparation is lost from the text (gap after 'HCG |'); also called HCG抗原
Assay: ELISA, HCG coated at 2 μg/ml, VHH detected with anti-6xHis-HRP, 4-parameter fit

T1 sequence (chain, as listed by the source, chain 1 of 2, other chains not shown): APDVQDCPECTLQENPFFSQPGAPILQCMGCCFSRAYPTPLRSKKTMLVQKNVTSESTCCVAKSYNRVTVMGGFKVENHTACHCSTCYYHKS

Binder | EC50 [µg/mL]
B1 | 0.0259
B2 | 0.0138
B3 | 0.00505
B4 | 0.00946
B5 | 0.014
